Molecular target: DDA1 (human, UniProt Q9BW61 1-102)
Assay: crystal structure

binding result: binds
B1: DDB1(ΔBPB) (natural protein)
chain: MSYNYVVTAQKPTAVNGCVTGHFTSAEDLNLLIAKNTRLEIYVVTAEGLRPVKEVGMYGKIAVMELFRPKGESKDLLFILTAKYNACILEYKQSGESIDIITRAHGNVQDRIGRPSETGIIGIIDPECRMIGLRLYDGLFKVIPLDRDNKELKAFNIRLEELHVIDVKFLYGCQAPTICFVYQDPQGRHVKTYEVSLREKEFNKGPWKQENVEAEASMVIAVPEPFGGAIIIGQESITYHNGDKYLAIAPPIIKQSTIVCHNRVDPNGSRYLLGDMEGRLFMLLLEKEEQMDGTVTLKDLRVELLGETSIAECLTYLDNGVVFVGSRLGDSQLVKLNVDSNEQGSYVVAMETFTNLGPIVDMCVVDLERQGQGQLVTCSGAFKEGSLRIIRNGIGIHGTIDEIQKLHIRTVPLYESPRKICYQEVSQCFGVLSSRIEVQDTSGGTTALRPSASTQALSSSVSSSKLFSSSTAPHETSFGEEVEVHNLLIIDQHTFEVLHAHQFLQNEYALSLVSCKLGKDPNTYFIVGTAMVYPEEAEPKQGRIVVFQYSDGKLQTVAEKEVKGAVYSMVEFNGKLLASINSTVRLYEWTTEKELRTECNHYNNIMALYLKTKGDFILVGDLMRSVLLLAYKPMEGNFEEIARDFNPNWMSAVEILDDDNFLGAENAFNLFVCQKDSAATTDEERQHLQEVGLFHLGEFVNVFCHGSLVMQNLGETSTPTQGSVLFGTVNGMIGLVTSLSESWYNLLLDMQNRLNKVIKSVGKIEHSFWRSFHTERKTEPATGFIDGDLIESFLDISRPKMQEVVANLQYDDGSGMKREATADDLIKVVEELTRIH

From paper doi:10.1101/737510 (bioRxiv, 2019)
